Measurements published in FireProtDB (doi:10.1074/jbc.271.51.32729).

B1: Ribonuclease HI, P0A7Y4 (parent)
chain: MLKQVEIFTDGSCLGNPGPGGYGAILRYRGREKTFSAGYTRTTNNRMELMAAIVALEALKEHCEVILSTDSQYVRQGITQWIHNWKKRGWKTADKKPVKNVDLWQRLDAALGQHQIKWEWVKGHAGHPENERCDELARAAAMNPTLEDTGYQVEV

Variants of: B1
Settings: Escherichia coli (strain K12), Thermal, CD, reversible: yes, structure 2RN2, whole UniProt chain shown
[1] = pH 9, 47 °C, glycine-NaOH 50 mM

Variant: E48A
- ddG of mutation (higher = less stable) (pH 3, 50 °C, glycine-HCl 10 mM): 0.1 kcal/mol
- Tm (pH 3, glycine-HCl 10 mM): 49.8 °C
- change of melting temperature, mutant - wild type (higher = more stable) (pH 3, glycine-HCl 10 mM): -0.2 °C
- unfolding enthalpy (van 't Hoff) (pH 3, glycine-HCl 10 mM): 91.6 kcal/mol
- ddG of mutation (higher = less stable) [1]: 0.3 kcal/mol
- Tm (pH 9, glycine-NaOH 50 mM): 46 °C
- change of melting temperature, mutant - wild type (higher = more stable) (pH 9, glycine-NaOH 50 mM): -1 °C

Variant: E48Q
- ddG of mutation (higher = less stable) (pH 3, 50 °C, glycine-HCl 10 mM): 0.1 kcal/mol
- Tm (pH 3, glycine-HCl 10 mM): 49.8 °C
- change of melting temperature, mutant - wild type (higher = more stable) (pH 3, glycine-HCl 10 mM): -0.2 °C
- unfolding enthalpy (van 't Hoff) (pH 3, glycine-HCl 10 mM): 99.1 kcal/mol
- Tm (pH 9, glycine-NaOH 50 mM): 48 °C
- change of melting temperature, mutant - wild type (higher = more stable) (pH 9, glycine-NaOH 50 mM): 1 °C

Variant: E48D
- ddG of mutation (higher = less stable) (pH 3, 50 °C, glycine-HCl 10 mM): -0.2 kcal/mol
- Tm (pH 3, glycine-HCl 10 mM): 50.8 °C
- change of melting temperature, mutant - wild type (higher = more stable) (pH 3, glycine-HCl 10 mM): 0.8 °C
- unfolding enthalpy (van 't Hoff) (pH 3, glycine-HCl 10 mM): 103 kcal/mol
- ddG of mutation (higher = less stable) [1]: 0.2 kcal/mol
- Tm (pH 9, glycine-NaOH 50 mM): 46.2 °C
- change of melting temperature, mutant - wild type (higher = more stable) (pH 9, glycine-NaOH 50 mM): -0.8 °C

Variant: D10A
- ddG of mutation (higher = less stable) (pH 3, 50 °C, glycine-HCl 10 mM): -2.4 kcal/mol
- Tm (pH 3, glycine-HCl 10 mM): 58.1 °C
- change of melting temperature, mutant - wild type (higher = more stable) (pH 3, glycine-HCl 10 mM): 8.1 °C
- unfolding enthalpy (van 't Hoff) (pH 3, glycine-HCl 10 mM): 105 kcal/mol

Variant: D10E
- ddG of mutation (higher = less stable) (pH 3, 50 °C, glycine-HCl 10 mM): -1.1 kcal/mol
- Tm (pH 3, glycine-HCl 10 mM): 53.8 °C
- change of melting temperature, mutant - wild type (higher = more stable) (pH 3, glycine-HCl 10 mM): 3.8 °C
- unfolding enthalpy (van 't Hoff) (pH 3, glycine-HCl 10 mM): 97.7 kcal/mol
- ddG of mutation (higher = less stable) [1]: -1 kcal/mol
- Tm (pH 9, glycine-NaOH 50 mM): 50.4 °C
- change of melting temperature, mutant - wild type (higher = more stable) (pH 9, glycine-NaOH 50 mM): 3.4 °C

Variant: D10N
- ddG of mutation (higher = less stable) (pH 3, 50 °C, glycine-HCl 10 mM): 0.7 kcal/mol
- Tm (pH 3, glycine-HCl 10 mM): 47.4 °C
- change of melting temperature, mutant - wild type (higher = more stable) (pH 3, glycine-HCl 10 mM): -2.6 °C
- unfolding enthalpy (van 't Hoff) (pH 3, glycine-HCl 10 mM): 90.5 kcal/mol
- ddG of mutation (higher = less stable) [1]: -2 kcal/mol
- Tm (pH 9, glycine-NaOH 50 mM): 53.8 °C
- change of melting temperature, mutant - wild type (higher = more stable) (pH 9, glycine-NaOH 50 mM): 6.8 °C

Variant: D10H
- ddG of mutation (higher = less stable) (pH 3, 50 °C, glycine-HCl 10 mM): -0.4 kcal/mol
- Tm (pH 3, glycine-HCl 10 mM): 51.5 °C
- change of melting temperature, mutant - wild type (higher = more stable) (pH 3, glycine-HCl 10 mM): 1.5 °C
- unfolding enthalpy (van 't Hoff) (pH 3, glycine-HCl 10 mM): 115 kcal/mol
- ddG of mutation (higher = less stable) [1]: -2.4 kcal/mol

Variant: D10S
- ddG of mutation (higher = less stable) (pH 3, 50 °C, glycine-HCl 10 mM): -0.7 kcal/mol
- Tm (pH 3, glycine-HCl 10 mM): 52.4 °C
- change of melting temperature, mutant - wild type (higher = more stable) (pH 3, glycine-HCl 10 mM): 2.4 °C
- unfolding enthalpy (van 't Hoff) (pH 3, glycine-HCl 10 mM): 121 kcal/mol
- ddG of mutation (higher = less stable) [1]: -2.7 kcal/mol
- Tm (pH 9, glycine-NaOH 50 mM): 56.2 °C
- change of melting temperature, mutant - wild type (higher = more stable) (pH 9, glycine-NaOH 50 mM): 9.2 °C

Variant: D70A
- ddG of mutation (higher = less stable) (pH 3, 50 °C, glycine-HCl 10 mM): 0.1 kcal/mol
- Tm (pH 3, glycine-HCl 10 mM): 49.7 °C
- change of melting temperature, mutant - wild type (higher = more stable) (pH 3, glycine-HCl 10 mM): -0.3 °C
- unfolding enthalpy (van 't Hoff) (pH 3, glycine-HCl 10 mM): 85.5 kcal/mol
- ddG of mutation (higher = less stable) [1]: -1.1 kcal/mol
- Tm (pH 9, glycine-NaOH 50 mM): 50.8 °C
- change of melting temperature, mutant - wild type (higher = more stable) (pH 9, glycine-NaOH 50 mM): 3.8 °C

Variant: D70N
- ddG of mutation (higher = less stable) (pH 3, 50 °C, glycine-HCl 10 mM): 0.3 kcal/mol
- Tm (pH 3, glycine-HCl 10 mM): 48.8 °C
- change of melting temperature, mutant - wild type (higher = more stable) (pH 3, glycine-HCl 10 mM): -1.2 °C
- unfolding enthalpy (van 't Hoff) (pH 3, glycine-HCl 10 mM): 110 kcal/mol
- Tm (pH 9, glycine-NaOH 50 mM): 52.5 °C
- change of melting temperature, mutant - wild type (higher = more stable) (pH 9, glycine-NaOH 50 mM): 5.5 °C

Variant: D70E
- ddG of mutation (higher = less stable) (pH 3, 50 °C, glycine-HCl 10 mM): -0.5 kcal/mol
- Tm (pH 3, glycine-HCl 10 mM): 51.8 °C
- change of melting temperature, mutant - wild type (higher = more stable) (pH 3, glycine-HCl 10 mM): 1.8 °C
- unfolding enthalpy (van 't Hoff) (pH 3, glycine-HCl 10 mM): 90.4 kcal/mol
- ddG of mutation (higher = less stable) [1]: -0.1 kcal/mol

Variant: D134N
- ddG of mutation (higher = less stable) (pH 3, 50 °C, glycine-HCl 10 mM): 0.1 kcal/mol
- Tm (pH 3, glycine-HCl 10 mM): 49.7 °C
- change of melting temperature, mutant - wild type (higher = more stable) (pH 3, glycine-HCl 10 mM): -0.3 °C
- unfolding enthalpy (van 't Hoff) (pH 3, glycine-HCl 10 mM): 110 kcal/mol
- ddG of mutation (higher = less stable) [1]: -1.8 kcal/mol
- Tm (pH 9, glycine-NaOH 50 mM): 53.4 °C
- change of melting temperature, mutant - wild type (higher = more stable) (pH 9, glycine-NaOH 50 mM): 6.4 °C

Variant: D134A
- ddG of mutation (higher = less stable) (pH 3, 50 °C, glycine-HCl 10 mM): -0.8 kcal/mol
- Tm (pH 3, glycine-HCl 10 mM): 52.9 °C
- change of melting temperature, mutant - wild type (higher = more stable) (pH 3, glycine-HCl 10 mM): 2.9 °C
- unfolding enthalpy (van 't Hoff) (pH 3, glycine-HCl 10 mM): 105 kcal/mol
- ddG of mutation (higher = less stable) [1]: -2 kcal/mol
